Patent US20250136687A1 (SHANDONG SIMCERE BIOPHARMACEUTICAL, published 2025)
Read-outs that look alike come from different tables or passages of the source. Blank lines part the entries; values can stand above or below the binder they belong to.

Tests used:
[1] = molecular target: T1, recombinant human CD3ε-ECD His protein (human, UniProt P07766 23-126); experiment: SPR, antibody captured on Protein A chip
T1 construct: extracellular domain; also called human CD3ε-His; CD3ε antigen protein; not shown: His tag
T1 sequence (P07766 23-126): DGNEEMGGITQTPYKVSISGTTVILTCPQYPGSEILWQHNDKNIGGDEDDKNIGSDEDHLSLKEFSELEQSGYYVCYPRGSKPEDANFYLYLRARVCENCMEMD
Protocol: (§1) Running buffer was HBS-EP+(10 mM HEPES, 150 mM NaCl, 3 mM EDTA, 0.05% surfactant P20) (GE Healthcare; BR-1006-69). The flow-through cell was set to 25° C. The sample block was set to 16° C. Both were pretreated with the running buffer. In each cycle, an antibody to be detected was first captured with a Protein A chip, and then a single concentration of CD3ε antigen protein was injected. The binding and dissociation processes of the antibody and the antigen protein were recorded, and finally Glycine pH 1.5 (GE Healthcare; BR-1003-54) was used to complete chip regeneration. The binding was measured by injecting different concentrations of recombinant human CD3ε proteins in a solution for 240 s with a flow rate of 30 μL/min. The concentration started from 200 nM (see the detailed results for the actual concentration in the test) and was diluted at 1:1, making a total of 5 concentrations. The dissociation phase was monitored for up to 600 s and was triggered by switching from sample solution to running buffer. The surface was regenerated by washing with a 10 mM glycine solution (pH 1.5) for 30 s at a flow rate of 30 μL/min. Bulk refractive index difference was corrected by subtracting the response obtained from the goat anti-human Fc surface, and the blank injection was subtracted at the same time (=double reference). For calculation of apparent KD value and other kinetic parameters, Langmuir 1:1 model was used.

human CD3ε/δ-His [2] = molecular target: T2, human CD3ε/δ-His (human, UniProt P07766 23-126; P04234 22-105); experiment: SPR, antibody captured on Protein A chip
T2 construct: Bought recombinant heterodimer with His tag; also called human CD3ε/δ protein
T2 sequence (P07766 23-126, stated change not applied, form in doubt, chain 1 of 2): as the sequence (P07766 23-126) above
T2 sequence (P04234 22-105, stated change not applied, form in doubt, chain 2 of 2): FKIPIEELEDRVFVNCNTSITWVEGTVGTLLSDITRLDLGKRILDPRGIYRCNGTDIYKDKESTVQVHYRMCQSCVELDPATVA
Protocol: as §1

[3] = molecular target: T1, recombinant human CD3ε-ECD His protein; experiment: ELISA, coated antigen
Protocol: (§2) To detect the binding activity of the humanized antibodies to CD3 protein, CD3 protein was diluted with PBS to the final concentration of […], then added to a 96-well ELISA plate at 50 μL/well, and the plate was sealed with a plastic film, and incubated overnight at 4° C. On the next day, the plate was washed 2 times with PBS, and a blocking solution [PBS+2% (v/v) BSA] was added for blocking at room temperature for 2 h. The blocking solution was poured off, and the antibody (initial concentration of 100 nM, and gradient dilution at 1:10) or a negative control antibody was added at 50 µl/well. After incubation at 37° C. for 2 h, the plate was washed 3 times with PBS. […] TMB substrate was added at 50 μl/well, and incubated at room temperature for 10 min, and then a stop solution (1.0 N HCl) was added at 50 μl/well. The OD450 nm values were read by an ELISA microplate reader (Multimode Plate Reader, EnSight, purchased from Perkin Elmer).

human CD3ε/δ-His [4] = molecular target: T2, human CD3ε/δ-His; experiment: ELISA, coated antigen
Protocol: as §2

monkey CD3ε protein = molecular target: T3, monkey CD3ε protein (monkey, UniProt Q95LI5 22-117, limits assumed); experiment: ELISA, coated antigen
T3 sequence (looked up): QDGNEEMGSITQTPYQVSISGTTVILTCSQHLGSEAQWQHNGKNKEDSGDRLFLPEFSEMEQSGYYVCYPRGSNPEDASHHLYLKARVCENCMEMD
Protocol: as §2
(§3) To detect the binding activity of the humanized antibodies to monkey CD3 protein, CD3 protein was diluted with PBS to the final concentration of […], and then added to a 96-well ELISA plate at 50 μl/well.

monkey CD3ε/δ-His = molecular target: T4, monkey CD3ε/δ-His (monkey, UniProt Q95LI5 22-117; Q95LI8 22-105); experiment: ELISA, coated antigen
T4 construct: Bought recombinant heterodimer with His tag
T4 sequence (Q95LI8 22-105, stated change not applied, form in doubt, chain 2 of 2, one chain of several): as the sequence (P04234 22-105, stated change not applied, form in doubt, chain 2 of 2) above, with I5V, N15K, I20V, S32T, D33N, I34N, T64A, S74N, V83L counted along it
Protocol: as §2, §3

[5] = molecular target: T5, cynomolgus monkey CD3 on the surface of expanded monkey T cells (cynomolgus monkey, UniProt Q95LI5 22-198; Q95LI8 22-171; Q95LI7 23-181); experiment: FACS, expanded monkey T cells
T5 construct: whole, on cells; Endogenous CD3 within the TCR-CD3 complex on T cells expanded from cynomolgus monkey PBMC
T5 sequence (Q95LI5 22-198, chain 1 of 3): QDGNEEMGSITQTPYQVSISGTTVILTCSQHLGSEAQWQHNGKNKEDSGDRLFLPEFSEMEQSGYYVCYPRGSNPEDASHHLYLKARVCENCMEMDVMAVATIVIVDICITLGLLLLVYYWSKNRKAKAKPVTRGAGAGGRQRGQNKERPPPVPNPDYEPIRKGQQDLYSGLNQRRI
T5 sequence (Q95LI8 22-171, chain 2 of 3): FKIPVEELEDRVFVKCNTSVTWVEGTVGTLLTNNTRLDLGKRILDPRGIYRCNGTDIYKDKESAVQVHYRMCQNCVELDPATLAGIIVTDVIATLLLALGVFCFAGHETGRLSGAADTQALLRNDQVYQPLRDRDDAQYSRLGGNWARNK
T5 sequence (Q95LI7 23-181, chain 3 of 3): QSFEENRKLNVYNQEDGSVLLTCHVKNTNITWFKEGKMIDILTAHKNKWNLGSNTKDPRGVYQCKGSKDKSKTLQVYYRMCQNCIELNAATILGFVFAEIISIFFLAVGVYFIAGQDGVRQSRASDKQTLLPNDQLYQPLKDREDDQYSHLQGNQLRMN
Protocol: (§4) The binding of the chimeric antibodies to CD3 on the cell surface was analyzed by detecting the binding of the antibodies to Jurkat cells and human T cells. Suspension cells Jurkat cells were scale-up cultured in T-75 cell culture flasks to the logarithmic growth phase, the supernatant of the medium was discarded by centrifugation, and the cell pellet was washed 2 times with PBS for later use. The expanded human T cells were washed 2 times with PBS for later use. After counting the cells in the previous step, the cell pellet was resuspended with [PBS+2% (w/w) BSA] blocking solution to 4×10⁶ cells/ml, and added to a 96-well FACS reaction plate at 50 μl/well, and then the chimeric antibody to be tested was added at 50 μl/well, and incubated at 4° C. for 1 h. The cells were centrifuged and washed 3 times with a PBS buffer. […] The cells were centrifuged and washed 5 times with PBS, and FACS (FACS Canto™, purchased from BD Company) was used for detection and result analysis. Data analysis was performed by software (CellQuest) to obtain the mean fluorescence […] (MFI) of the cells. And then software (GraphPad Prism8) was used for analysis, data fitting, and EC50 value calculation. The same method was used to simultaneously detect the binding of the chimeric antibodies to endogenous CD3 negative cells MOLT4 cells.
The expanded monkey T cells were collected, and FACS detection and data analysis were performed according to the method in Example 5.1.

[6] = molecular target: T6, human CD3 on the cell surface (Jurkat cells, expanded human T cells, Jurkat-Lucia NFAT cells, human PBMC) (human, UniProt P07766 23-207; P04234 22-171; P09693 23-182); experiment: FACS, expanded human T cells
T6 construct: whole, on cells; Endogenous CD3 within the TCR-CD3 complex on cells (also zeta chains and TCR); the cell type is named under assay
T6 sequence (P07766 23-207, chain 1 of 3): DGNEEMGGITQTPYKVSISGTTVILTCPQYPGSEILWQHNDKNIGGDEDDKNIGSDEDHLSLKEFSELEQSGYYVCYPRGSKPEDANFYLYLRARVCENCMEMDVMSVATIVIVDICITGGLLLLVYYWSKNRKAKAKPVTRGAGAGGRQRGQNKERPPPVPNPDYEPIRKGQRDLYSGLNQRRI
T6 sequence (P04234 22-171, chain 2 of 3): as the sequence (Q95LI8 22-171, chain 2 of 3) above, with V5I, K15N, V20I, T32S, N33D, N34I, A64T, N74S, L83V, R141H counted along it
T6 sequence (P09693 23-182, chain 3 of 3): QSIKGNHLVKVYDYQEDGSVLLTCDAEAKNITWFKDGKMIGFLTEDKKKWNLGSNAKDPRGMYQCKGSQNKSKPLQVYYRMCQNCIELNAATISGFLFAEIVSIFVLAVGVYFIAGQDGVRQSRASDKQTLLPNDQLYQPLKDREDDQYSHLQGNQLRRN
Protocol: as §4
The expanded human PBMC cells were collected, and FACS detection and data analysis were performed according to the method in Example 5.1.

[7] = molecular target: T6, human CD3 on the cell surface (Jurkat …); experiment: FACS, expanded human T cells; remark: listed apart in the source
Protocol: as §4

[8] = molecular target: T5, cynomolgus monkey CD3 on the surface of …; experiment: FACS, expanded monkey T cells; remark: listed apart in the source
Protocol: as §4
FACS detection and data analysis were performed on the cryopreserved monkey T cells of Example 2.4 according to the method in Example 5.1.

[9] = molecular target: T6, human CD3 on the cell surface (Jurkat …); experiment: FACS, Jurkat cells
Protocol: as §4

[10] = molecular target: T6, human CD3 on the cell surface (Jurkat …); experiment: cell-based or functional assay

- Kd [1]: 1.29 nM
- koff [1]: 0.000369 s⁻¹
- kon [1]: 286000 M⁻¹ s⁻¹
- Kd (human CD3ε/δ-His [2]): 145 nM
- koff (human CD3ε/δ-His [2]): 0.0335 s⁻¹
- kon (human CD3ε/δ-His [2]): 231000 M⁻¹ s⁻¹
- EC50 [3]: 0.0395 nM
- max-OD450 [3]: 3.12 OD450
- EC50 (human CD3ε/δ-His [4]): 0.32 nM
- max-OD450 (human CD3ε/δ-His [4]): 3.15 OD450
- EC50 (monkey CD3ε protein): 0.00859 nM
- max-OD450 (monkey CD3ε protein): 3.01 OD450
- EC50 (monkey CD3ε/δ-His): 0.0552 nM
- max-OD450 (monkey CD3ε/δ-His): 3.13 OD450
- EC50 [5]: 7.84 nM
- max_MFI [5]: 10200 MFI
- EC50 [6]: 9.45 nM
- max_MFI [6]: 10000 MFI
B1: 7-35.6-H2-L3 humanized antibody (antibody, human IgG1, lambda, V domains shown)
VH: EVQLVESGGGLVQPGGSLKLSCAASGFTFNTYAMNWVRQASGKGLEWVGRIRSKINNYATYYGDSVKDRFTISRDDSKNTFYLQMNSLKTEDTAVYYCVIHENYGSISWFAYWGQGTLVTVSS
VL: ETVVTQEPSLTVSPGGTVTLTCRSSTGAVTTSNYANWVQQKPGQAFTGLIGGTNNRAPWTPARFSGSLLGGKAALTLSGVQPEDEAEYYCALWYSNHWVFGGGTKLTVLG

- Kd [1]: 0.806 nM
- koff [1]: 0.000214 s⁻¹
- kon [1]: 266000 M⁻¹ s⁻¹
- Kd (human CD3ε/δ-His [2]): 27.4 nM
- koff (human CD3ε/δ-His [2]): 0.00983 s⁻¹
- kon (human CD3ε/δ-His [2]): 358000 M⁻¹ s⁻¹
- EC50 [3]: 0.0206 nM
- max-OD450 [3]: 3.16 OD450
- EC50 (human CD3ε/δ-His [4]): 0.19 nM
- max-OD450 (human CD3ε/δ-His [4]): 3.01 OD450
- EC50 (monkey CD3ε protein): 0.00263 nM
- max-OD450 (monkey CD3ε protein): 2.99 OD450
- EC50 (monkey CD3ε/δ-His): 0.00332 nM
- max-OD450 (monkey CD3ε/δ-His): 3.08 OD450
- EC50 [5]: 0.92 nM
- max_MFI [5]: 25400 MFI
- EC50 [6]: 1.52 nM
- max_MFI [6]: 35900 MFI
B2: 5-7.13-H1a-L2 humanized antibody (antibody, human IgG1, kappa, V domains shown)
VH: EVQLVQSGAEVKKPGASVKVSCKASGYTFTSYWVHWVRQAPGQRLEWMGNINPSDGVTNYNEKFKSRVTITVDKSASTAYMELSSLRSEDTAVYYCTRDAYGQYYFDNWGQGTTVTVSS
VL: DIVMTQTPLSLPVTPGEPASISCKSSQSLLNSRTRKNYLAWYLQKPGQSPQLLIYWASVRDSGVPDRFSGSGSGTDFTLKISRVEAEDVGVYYCIQSYYLRTFGGGTKVEIKR

- EC50 [3]: 0.0337 nM
- max-OD450 [3]: 3.1 OD450
- EC50 (human CD3ε/δ-His [4]): 0.53 nM
- max-OD450 (human CD3ε/δ-His [4]): 2.93 OD450
- EC50 [6]: 49.7 nM
- max_MFI [6]: 11300 MFI
B3: 6-35.22-H1-L1 humanized antibody (antibody, human IgG1, kappa, V domains shown)
VH: EVQLVESGGGVVQPGRSLRLSCAASGFTFTDYYMSWVRQAPGKGLEWVAMSRNKAKGHTIEYSSSVKGRFTISRDNSKNTLYLQMNSLRAEDTAVYYCARDTYESYDGYFDVWGQGTTVTVSS
VL: DIVMTQSPDSLAVSLGERATINCKSSQSLFNSRSRKNYLAWYQQKPGQTPKLLIYWASIRESGVPDRFSGSGSGTDFTLTISSLQAEDVAVYYCKQSYYLYTFGQGTKLEIKR

- EC50 [7]: 3.62 nM
- MFI_Max [7]: 8900 MFI
- EC50 [8]: 4.18 nM
- MFI_Max [8]: 18200 MFI
- EC50 [9]: 8.3 nM
- MFI_Max [9]: 26700 MFI
- EC50 (nM), luciferase reporter, Jurkat-Lucia NFAT cells [10]: 0.82 nM
- Maximum response value (RLU) [10]: 27000 RLU
B4: 6-35.22 human-murine chimeric antibody (antibody, human IgG1, kappa, V domains shown)
VH: EVKLVESGGGLVQPGASLSLSCAASGFTFTDYYMSWVRQPPGKALEWLAMSRNKAKGHTIEYSSSVKGRFTISRDNSQSILYLQMNALRAEDSATYYCARDTYESYDGYFDVWGAGTTVIVSS
VL: DIVMSQSPSSLAVSAGETVTMSCKSSQSLFNSRSRKNYLAWYQQKPGQTPKLLIYWASIRESGVPDRFTGSGSGTDFTLTISSVQAEDLAVYYCKQSYYLYTFGSGTKLEIKR
notes: Human IgG1 chimera

- Kd [1]: 0.908 nM
- koff [1]: 0.000249 s⁻¹
- kon [1]: 274000 M⁻¹ s⁻¹
- Kd (human CD3ε/δ-His [2]): 67.4 nM
- koff (human CD3ε/δ-His [2]): 0.0317 s⁻¹
- kon (human CD3ε/δ-His [2]): 469000 M⁻¹ s⁻¹
- EC50 [3]: 0.0363 nM
- max-OD450 [3]: 3.11 OD450
- EC50 (human CD3ε/δ-His [4]): 0.22 nM
- max-OD450 (human CD3ε/δ-His [4]): 3.16 OD450
- EC50 (monkey CD3ε protein): 0.00475 nM
- max-OD450 (monkey CD3ε protein): 3.1 OD450
- EC50 (monkey CD3ε/δ-His): 0.0193 nM
- max-OD450 (monkey CD3ε/δ-His): 3.16 OD450
- EC50 [5]: 2.84 nM
- max_MFI [5]: 11800 MFI
- EC50 [6]: 7.05 nM
- max_MFI [6]: 11500 MFI
B5: 8-18.1-H1-L2 humanized antibody (antibody, human IgG1, kappa, V domains shown)
VH: EVQLVQSGAEVKKPGASVKVSCKASGYTFTMNTMHWVRQAPGQRLEWMGYINPYSGYTKYNQIFKDRVTITADKSASTAYMELSSLRSEDTAVYYCLRGGEGVWGQGTTVTVSS
VL: DVVMTQSPLSLPVTLGQPASISCKSSQSLLDSDGKTYLNWLQQRPGQSPRRLIYLVSELGSGVPDRFSGSGSGTDFTLKISRVEAEDVGVYYCWQGTHFPRTFGGGTKVEIKR
